First the molecules themselves.
T1: MERS-CoV RBD WT (MERS-CoV, UniProt K9N5Q8 367-606)
T1 sequence: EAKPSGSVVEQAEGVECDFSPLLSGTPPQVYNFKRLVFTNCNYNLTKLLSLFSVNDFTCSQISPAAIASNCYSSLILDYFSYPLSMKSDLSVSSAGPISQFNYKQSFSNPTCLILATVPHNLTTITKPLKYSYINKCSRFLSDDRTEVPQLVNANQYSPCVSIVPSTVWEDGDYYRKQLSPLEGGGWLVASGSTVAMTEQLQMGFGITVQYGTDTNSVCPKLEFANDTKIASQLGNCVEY

B1: S728-537 (antibody, V domains shown)
VH: QVQLVQSGAEVKKPGASVKVSCKTSGYTFTGFYLHWLRQAPGQGLEWMGRINPNTGDTDYAQKFQGRVTMTRDTSISTAYMELSRLRADDTAVYYCARTPGQTRQLFVGTNVLDVWGQGTMVTVSS
VL: DIQMTQSPSSVSASVGDRVTITCRASQGISSWLAWYQQKPGKAPKVLIFAASSLQSGVPSRFSGSGSGTDFTLTITSLQPEDFATYFCQQTNSFPPTFGGGTKVEIK
B2: S728-1261 (antibody, V domains shown)
VH: QVQLQESGPGLVKPSGTLSLTCAVSGGSISNNNWWIWVRQPPGKGLEWIGEIHHSGSTDYNPSLKSRVTISIDKSKNQFSLRLSSVTAADTAVYYCARKPEPYYYYYYMDVWGKGTTVTVSS
VL: ETVLTQSPGTLSLSPGERATLSCRASQSVSSSYITWYQQKPGQAPRLLIYGASSRATGIPDRFSGSGSGTDFTLTISRLEPEDFAVYYCQQYRSPWGLTFGPGTKVDIK
B3: S728-430 (antibody, V domains shown)
VH: EVQLVESGGGLIQPGGSLRLSCAASGFTVSSNYMSWVRQAPGKGLEWVSVIYSGGSTYYADSVKGRFTISRDNSKNTLYLQMNSLRAEDTAVYYCARTPRGSRRGAFDIWGQGTMVTVSS
VL: not shown
B4: S728-1157 (antibody, V domains shown)
VH: EVQLVESGGGLVQPGGSLRLSCAASGLLVSRNYMNWVRQAPGKGLEWVSIIYSGGSTFYADSVEGRFTISRDESKNTLYLQMNSLRTDDTAVYYCARDLSDYGGIDCWGQGTLVTVSS
VL: YELTQPLSVSMALGQTARISCGGDNVGSQNVHWYQQRPGQAPVLVIYRDSNRPSGIPERFSGSKSGNTATLTISRAQAGDEADYYCQVWDSSTVAFGGGTKLTVL
B5: S728-369 (antibody, V domains shown)
VH: QVQLQESGPGLVKPSQTLSLTCSVSGGSISSGGYYWSWIRQHPGKGLEWIGYMYYSGSTYYNPSLKSRVTIFVDTSKNHFSLKLTSVTAADTAVYYCARDSYENYYGSGSLEPNYHHYNMDVWGQGTTVTVSS
VL: DVQMTQSPSTLSASIGDRVTITCRASQSISGWLAWYQQRPGKAPKLLIYRASSLDFGVPSRFSGNGSGTEFTLTISSLQPDDFATYYCQQYHTYRTFGQGTKVEVK
B6: S728-209 (antibody, V domains shown)
VH: QITLKESGPTLVKPTQTLTLTCTLSGFSLSTSGVSVGWIRQPPGKALEWLAVIFWDDDKRYNPSLKSRLTIAKDTSKSQVVLTMTNLDPVDTGTYYCVSGSSYYYYYYMDVWGKGTTVTVSS
VL: DIQMTQSPSSVSASIGDRVTITCRASQDISTWLAWYQQKPGRAPNLLIYGASSLQSGVPSRFSGSGSGTDFTLTISSLQPEDFATYYCQQATSFPLTFGGGTKVEIK
B7: S728-1981 (antibody, V domains shown)
VH: QVQLVQSGAEVKKPGASVKVSCKTSGYTFTNYFMHWVRQAPGQGLEWMGIINPSGGSASYAQKFQGRITMTSDTSTSTVYMELSSLRSEDTAVYYCAREDIIVVVPARPLDYWGHGTLVTVSS
VL: EIVLTQSPATLSLSPGERATLSCRASQSFSNYLAWYQQKPGQAPRLLIYDASNRATGIPARFSGSGSGTDFTLTISSLEPEDFAVYYCQQRSNWPPLLTFGGGTKVEIK
B8: S728-2036 (antibody, V domains shown)
VH: QVHLVQSGAEIRKPGASVMVSCKASGYTFTDYYIHWVRQAPGQGLEWMGWINPNSGGTNYAQKFQGRVTMTRDTSIRTAYMELSRLRSDDAAVYYCAREGISMLRGVRSWFDPWGQGTLVTVSS
VL: QSALTQPASVSGSPGQSITISCTGTSSDVGSYNLVSWYQQHPGKVPKLIIYEVTKRPSGVSNRFSGSKSGNTASLTISGLQTEDEADYYCCSYAGFSAWVFGGGTKLTVL
B9: S144-69 (antibody, V domains shown)
VH: EVQLVQSGAEVKKPGESLKISCKGSGYSFTSYWIGWVRQMPGKGLEWMGIIYPGDSDTRYSPSFQGQVTISADKSITTAYLQWSSLKASDTAMYYCARTQTTNWFDSWGQGTLVTVSS
VL: DIQMTQSPSTLSVSVGDRVTITCRASQSVSSWLAWYQQKPGKAPKLLIYDASSLESGVPSRFSGSGSGTEFTLTISSLQPDDFATYYCQQYNSFYTFGQGTKLEIK
B10: S728-537 (antibody, V domains shown)
VH: B1 VH
VL: B1 VL
B11: S144-466 (antibody, V domains shown)
VH: EVQLVQSGAEVKKPGESLKISCKGSGYRFTRYWIGWVRQMPGKGLEWMGIIYLGDSETRYSPSFQGQVTISADNSISTAYLQWSSLKASDTAMYYCARSSNWNYGDYWGQGTLVTVSS
VL: DIQMTQSPSTLSASVGDRVTITCRASQSITSWLAWYQQKSGKAPKLLIYDASSLESGVPSRFSGSGSGTEFTLTISSLQPDDFATYYCQQYNSYPWTFGQGTKVEIK
B12: S728-430 (antibody, V domains shown)
VH: B3 VH
VL: not shown
B13: S728-1157 (antibody, V domains shown)
VH: B4 VH
VL: B4 VL
B14: S24-1384 (antibody, V domains shown)
VH: EVQLVESGGGLVQPGGSLRLSCAVSGFTFSSYSMNWVRQAPGKGLEWVSYISSSSSIIYYADSVKGRFTISRDNAKNSLYLQMNSLRAEDTAVYYCARDFLDYSRSYSYGMDVWGQGTTVTVSS
VL: SYVLTQPPSVSVAPGQTARITCGGDNIGSKNVHWYQQKPGQAPVLVVFDDSDRPSGIPERFSGSNSGNTATLTISRVEAGDEADYYCQVWDSSSDHYVVFGGGTKLTVL
B15: S564-152 (antibody, V domains shown)
VH: QVQLVESGGGVVQPGRSLRLSCAASGFTFSYYGMHWVRQAPGKGLEWVAVIWYDGSNKHYADSVKGRFTISRDNSKNTLYLQMNSLRAEDTAVYYCAKNAAPYCSGGSCYGTYFDYWGQGTLVTVSS
VL: DIQMTQSPSSLSASVGDRVTITCQASQDINNYLNWYQQKPGKAPKLLIYDASNLETGVPSRFSGSGSGTDFTFTISSLQPEDIATYYCQQYDNVPPHTFGQGTKLEIK
B16: S728-1690 (antibody, V domains shown)
VH: QVQLVQSGAEVVKPGSSVKVSCKASGGTFTRYAISWVRQAPGQGPEWMGRIIPMFGIANYAQRFQGRVTMTADKSTSTAYMELSSLRSEDTAVYYCATCQYYYDSSGYGSLDYWGQGTQVTVSS
VL: EIVLTQSPGTLSLSPGERVTLSCRASQSISSNFLAWYQQKPGQAPRLLISGASSRATGIPDRFSGGGSGTDFTLTISRLEPEDFAVYYCQQYHSSPRTFGQGTKVEIK
B17: S144-509 (antibody, V domains shown)
VH: EVQLVQSGAEVKKPGESLKISCKGSAYTFTTYWIGWVRQMPGKGLEWMGIIYPGDSDTRYSPSFQGQVTISADKSISTAYLQWSSLKASDTAMYYCARLLLVAGPFDYWGQGTLVTVSS
VL: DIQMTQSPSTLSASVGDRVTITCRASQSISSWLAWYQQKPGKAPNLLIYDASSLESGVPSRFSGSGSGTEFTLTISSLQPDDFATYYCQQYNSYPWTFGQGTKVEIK

The target in the first experiment is T2, SARS-CoV-2 spike receptor-binding domain (RBD), WT (SARS-CoV-2, UniProt P0DTC2 319-541).
T2 construct: domain: RBD
Briefly: epitope specificity column of the table of RBD-reactive mAbs (ELISA). A general note: An ELISA detects its analyte on a solid surface through an enzyme-linked reagent.
B1: the binding result is on record as “binds”.
As to B2, the binding result is listed as “binds”.
In the case of B3, the binding result was “binds”.
For the molecule B4, the binding result is on record as “binds”.
For the molecule B5, the binding result is given as “binds”.
Still for that read-out and setting: the same measure for B6: “binds”.

The next experiment has as its target T3, S1 monomeric WT (SinoBiological) (SARS-CoV-2, UniProt P0DTC2 16-685).
T3 construct: domain: S1
The experiment in a line: ELISA.
Regarding B7, the binding result is reported as “binds”.
Take B8: the binding result is on record as “binds”.

A further experiment addresses SARS-CoV-1 RBD WT (SARS-CoV-1, UniProt P59594 306-527). Briefly: ELISA.
For the molecule B9, the binding result is “binds”.
For the molecule B10, the binding result is “no binding (tested: 10 ug/ml top of dilution series)”.
B11: the binding result is reported as “binds”.
Consider B12, for which the binding result was “no binding (tested: 10 ug/ml top of dilution series)”.
Same read-out and setting: the same measure for B13: “no binding”.
Regarding B14, the binding result is given as “binds”.
Turning to B15, the binding result is recorded as “binds”.
As to B16, the binding result is listed as “no binding (tested: 10 ug/ml top of dilution series)”.
B17: the binding result is reported as “binds”.

Another experiment concerns the target T1, MERS-CoV RBD WT. The experiment in a line: ELISA.
Take B10: the binding result is “no binding (tested: 10 ug/ml top of dilution series)”.
The same measure, in the same setting: in the case of B12 it was “no binding (tested: 10 ug/ml top of dilution series)”; in that of B16, “no binding (tested: 10 ug/ml top of dilution series)”.

The values above are taken from US20250026814A1 (UNIVERSITY OF CHICAGO, published 2025).
